Laboratory results published in patent US20070243198A1 (ERA BIOTECH S A, published 2007).

T1: hGH binding protein provided by the kit (Active Bioactive Human Growth Hormone ELISA DSL-10-11100, Diagnostic … (UniProt P10912 19-256))
T1 sequence (looked up): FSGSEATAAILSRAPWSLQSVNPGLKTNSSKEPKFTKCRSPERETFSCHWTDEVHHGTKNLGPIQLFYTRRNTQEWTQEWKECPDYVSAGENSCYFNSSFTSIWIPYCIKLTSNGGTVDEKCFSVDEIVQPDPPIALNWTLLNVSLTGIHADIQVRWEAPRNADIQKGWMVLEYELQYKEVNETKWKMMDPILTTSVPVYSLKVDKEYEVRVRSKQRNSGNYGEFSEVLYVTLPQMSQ

B1: RX3 protein without a fusion partner (other)
chain: THTSGGCGCQPPPPVHLPPPVHLPPPVHLPPPVHLPPPVHLPPPVHLPPPVHVPPPVHLPPPPCHYPTQPPRPQPHPQPHPCPCQQPHPSPCQY
notes: also called control RX3 RPBLA preparations; isolated RX3 protein

Key:
[1] = target: human EGF receptor on MDA-MB231 breast cancer cells (human) (UniProt P00533); test: cell-based or functional assay
[2] = target: T1, hGH binding protein provided by the kit …; test: bioactivity ELISA based on binding to the kit's hGH binding protein (DSL-10-11100)

| Molecule | % proliferation with respect to Deprived cells (Mean), radioactive thymidine incorporation, 1.2 ng/mL [1] | binding result [2] |
| --- | --- | --- |
| RX3-EGF fusion protein | 146% |  |
| B1 |  | no binding |
